From patent US20230272055A1 (Incyte, published 2023)

T1: human mutCALR on BaF3 cells stably expressing human MPL and human mutCALR (MPL-mutCALR cells) (human)
T1 construct: also called mutant calreticulin
T1 chain: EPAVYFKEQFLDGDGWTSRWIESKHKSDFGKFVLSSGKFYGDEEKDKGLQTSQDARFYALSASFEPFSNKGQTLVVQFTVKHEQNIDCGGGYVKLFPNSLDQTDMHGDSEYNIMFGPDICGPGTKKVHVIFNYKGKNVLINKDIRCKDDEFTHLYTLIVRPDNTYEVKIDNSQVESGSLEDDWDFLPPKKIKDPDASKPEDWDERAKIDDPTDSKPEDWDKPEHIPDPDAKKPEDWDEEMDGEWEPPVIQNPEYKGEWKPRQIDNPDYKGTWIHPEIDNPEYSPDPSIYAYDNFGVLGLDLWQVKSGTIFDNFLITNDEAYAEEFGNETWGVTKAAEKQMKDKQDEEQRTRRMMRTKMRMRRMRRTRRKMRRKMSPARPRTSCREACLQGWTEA

T2: human Type 1 mutCALR on Ba/F3 cells expressing MPL and Type 1 mutCALR (human)
T2 chain: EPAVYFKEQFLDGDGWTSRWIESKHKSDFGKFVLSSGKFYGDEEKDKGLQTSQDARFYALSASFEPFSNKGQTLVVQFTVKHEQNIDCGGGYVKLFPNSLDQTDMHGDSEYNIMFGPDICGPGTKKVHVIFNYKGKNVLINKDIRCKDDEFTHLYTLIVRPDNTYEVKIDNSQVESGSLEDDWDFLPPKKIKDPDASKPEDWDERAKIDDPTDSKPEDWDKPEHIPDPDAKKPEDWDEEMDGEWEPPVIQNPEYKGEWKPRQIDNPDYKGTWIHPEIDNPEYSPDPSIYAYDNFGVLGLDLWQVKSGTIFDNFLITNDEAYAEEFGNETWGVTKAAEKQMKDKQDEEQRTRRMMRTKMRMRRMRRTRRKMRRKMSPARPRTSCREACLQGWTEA


Tests used:
[1] = target: T1, human mutCALR on BaF3 cells stably …; assay: flow cytometry, BaF3 MPL-mutCALR cells
Experimental: On the day of the assay, cells were washed and resuspended in assay buffer. Approximately 200,000 cells/well were added to 96-well plates and stained with the indicated concentration of antibodies for 30 minutes on ice. Cells were then washed and stained with goat anti-human secondary conjugated to R-phycoerythrin (R-PE) (Jackson Immuno Research Laboratories) for 30 minutes on ice. The cells were then washed and analyzed by flow cytometry.

[2] = target: T2, human Type 1 mutCALR on Ba/F3 cells …; assay: cell-based or functional assay

Binder | MPL-mutCALR AUC [1] | IC50, inhibition of pSTAT5 [2] | EC50 [1]
anti-mutCALR antibody clone 3 (antibody, human IgG1, lambda, V domains shown, human IgG1) VH: EVQLVQSGAEVKKPGASVKVSCKVSGYTLTELSMQWVRQAPGKGLEWMGGFDPDDGETMYAERFQGRLTVTEDTSTDTVYMELRSLTSEDTALYFCATSPGYDFFDYWGQGTLVTVSS VL: SYVLTQPPSVSVAPGQTARITCGGNNIGSKSVHWYQQKPGQAPVLVVYDDSDRPSGIPERFSGSNSGNTATLTINRVEAGDEADYYCQVWDSSNDLLIFGGGTKLTVLG | 102000 | 0.021 µg/mL | 
anti-mutCALR antibody clone 16 (antibody, human IgG1, lambda, V domains shown, human IgG1) VH: EVQLVQSGAEVKKPGASVKVSCKVSGYTLTELSMQWVRQAPGKGLEWMGGFDPDDGETMYAEKFQGRLTVTEDTSTDTVYMELRSLTSEDTALYFCATSPGYDFFDYWGQGTLVTVSS VL: SYVLTQPPSVSVAPGKTARITCGGNNTGSKSVHWYQQKPGQAPVLVVYDDSDRPSGIPERFSGSNSGNTATLTINRVEAGDEADYYCQVWDSSNDLLIFGGGTKLTVLG | 63200 | 0.028 µg/mL | 0.04 µg/mL
anti-mutCALR antibody clone 19 (antibody, human IgG1, lambda, V domains shown) VH: EVQLVQSGAEVKKPGASVKVSCKVSGYTLTELSMQWVRQAPGKGLEWMGGFDPDDGETMYAEKFQGRLTVTEDTPTDTVYMELRSLTSEDTALYFCATSPGYDFFDYWGQGTLVTVSS VL: SYVLTQPLSVSVALGQTARITCGGSNIGDIRVHWYQQKPGQAPVLVVYDDSDRPSGIPERFSGSNSGNTATLTINRVEAGDEADYYCQVWDSSNDLLIFGGGTKLTVLG | 91600 | 0.062 µg/mL | 
anti-mutCALR antibody clone 10 (antibody, human IgG1, lambda, V domains shown, human IgG1) VH: EVQLVQSGAEVKKPGASVKVSCKVSGYTLTELSMQWVRQAPGKGLEWMGGFDPDDGETMYAEKFQGRLTVTEDTSTDTVYMELRSLTSEDTALYFCATSPGYDFFDYWGQGTLVTVSS VL: SYELTQPPSVSVAPGQTARIPCGGNNIGSEGVHWYQQKPGQAPVLVVYDDSDRPSGIPERFSGSNSGNTATLTISRVEAGDEADYYCQVWDSSNDLLIFGGGTKLTVLG | 72100 | 0.055 µg/mL | 
anti-mutCALR antibody clone 7 (antibody, human IgG1, lambda, V domains shown, human IgG1) VH: EVQLVQSGAEVKKPGASVKVSCKVSGYTLTELSMQWVRQAPGKGLEWMGGFDPDDGETMYAEKFQGRLTVTEDTSTDTVYMELRSLTSEDTALYFCATSPGYDFFDYWGQGTLVTVSS VL: SYVLTQPPSVSVAPGQTASITCVGTNFGSKNVHWYQQRPGQAPVLVVYDDSDRPSGIPERFSGSNSGNTATLTINRVEAGDEADYYCQVWDSSNDLLIFGGGTKLTVLG | 66800 | 0.049 µg/mL | 0.19 µg/mL
anti-mutCALR antibody clone 5 (antibody, human IgG1, lambda, V domains shown, human IgG1) VH: EVQLVQSGAEVKKPGASVKVSCKVSGYTLTELSMQWVRQAPGKGLEWMGGFDPDDGETMYAEKFQGRLTVTEDTSTDTVYMELRSLTSEDTALYFCATSPGYDFFDYWGQGTLVTVSS VL: SYVLTQPPSVSVAPGQTASITCVGTNFGSKNVHWYQQRPGQAPVLVVYDDSDRPSGIPERFSGSNSGNTATLTISRVEAGDEADYYCQVWDSSSDHLIFGGGTKLTVLG | 57100 | 0.03 µg/mL | 0.09 µg/mL
anti-mutCALR antibody clone 15 (antibody, human IgG1, lambda, human IgG1) heavy: not shown light: SYELTQPPSVSVAPGKTARITCGGDNIGSKSVHWYQQKPGQAPVLVVYDDSDRPSGIPERFSGSNSGNTATLTINRVEAGDEADYYCQVWDSSNDLLIFGGGTKLTVLGQPKAAPSVTLFPPSSEELQANKATLVCLISDFYPGAVTVAWKADSSPVKAGVETTTPSKQSNNKYAASSYLSLTPEQWKSHRSYSCQVTHEGSTVEKTVAPTECS | 87600 | 0.041 µg/mL | 
anti-mutCALR antibody clone 4 (antibody, human IgG1, lambda, V domains shown, human IgG1) VH: EVQLVQSGAEVKKPGASVKVSCKVSGYTLTELSMQWVRQAPGKGLEWMGGFDPDDGETMYAEKFQGRLTVTEDTSTDTVYMELRSLTSEDTALYFCATSPGYDFFDYWGQGTLVTVSS VL: SYVLTQPPSVSVAPGQTARITCGGNNIGSKSVHWYQQKPGQAPVLVVYDDSDRPSGIPERFSGSNSGNTATLTINRVEAGDEADYYCQVWDSSNDLLIFGGGTKLTVLG | 74000 | 0.04 µg/mL | 
anti-mutCALR antibody clone 22 (antibody, human IgG1, lambda, V domains shown, human IgG1) VH: EVQLVQSGAEVKKPGASVKVSCKVSGYTLTELSMQWVRQAPGKGLEWMGGFDPDDGETMYAEKFQGRLTVTEDTSTDTVYMELRSLTSEDTALYFCATSPGYDFFDYWGQGTLVTVSS VL: SYVLTQPPSVSVAPGKTARITCGGNNIGSKNVHWYQQKPGQAPVLVVYDDSDRPSGIPERFSGSNSGNTATLTINRVEAGDEADYYCQVWDSSNDLLIFGGGTKLTVLG | 124000 | 0.035 µg/mL | 
anti-mutCALR antibody clone 8 (antibody, human IgG1, lambda, V domains shown, human IgG1) VH: QVQLVQSGAEVKKPGSSVKVSCKVSGYTLTELSMQWVRQAPGKGLEWMGGFDPDDGETMYAEKFQGRLTVTEDTSTDTVYMELRSLTSEDTALYFCATSPGYDFFDYWGQGTLVTVSS VL: SYELTQPPSVSVAPGQTARITCGGNNIGSKSVHWYQQKPGQAPVLVVYDDSDRPSGIPERFSGSNSGRTATLTISRVEAGDEADYHCQVWDSSSDHLVFGGGTKLTVLG | 67400 | 0.043 µg/mL | 4.12 µg/mL
anti-mutCALR antibody clone 18 (antibody, human IgG1, lambda, V domains shown, human IgG1) VH: EVQLVQSGAEVKKPGASVKVSCKVSGYTLTELSMQWVRQAPGKGLEWMGGFDPDDGETMYAEKFQGRLTVTEDTSTDTVYMELRSLTSEDTALYFCATSPGYDFFDYWGQGTLVTVSS VL: SYVLTQPPSVSVAPGKTARITCGGNNIGSKSVHWYQQKPGQAPVLVVYDDSDRPLGIPERFSGSNSGNTATLTINRVEAGDEADYYCQVWDSSNDLLIFGGGTKLTVLG | 91900 | 0.036 µg/mL | 
anti-mutCALR antibody clone 12 (antibody, human IgG1, lambda, V domains shown, human IgG1) VH: EVQLVQSGAEVKKPGASVKVSCKVSGYTLTELSMQWVRQAPGKGLEWMGGFDPDGGETMYAEKFQGRLTVTEDTSTDTVYMELRSLTSEDTALYFCATSPGYDFFDYWGQGTLVTVSS VL: SYVLTQPPSVSVAPGQTARVSCGGNNIGSKSVNWYRQKPGQAPVLVIYDDSDRPSGIPERFSGSNSGNTATLTINRVEAGDEADYYCQVWDSSNDLLIFGGGTKLTVLG | 61000 | 0.061 µg/mL | 0.02 µg/mL
anti-mutCALR antibody clone 13 (antibody, human IgG1, lambda, V domains shown, human IgG1) VH: QVQLVQSGAEVKKPGASVKVSCKVSGYTLTELSMQWVRQAPGKGLEWMGGFDPDDGETMYAEKFQGRLTVTEDTSTDTVYMELRSLTSEDTALYFCATSPGYDFFDYWGQGTLVTVSS VL: not shown | 57700 | 0.091 µg/mL | 0.04 µg/mL
anti-mutCALR antibody clone 17 (antibody, human IgG1, lambda, human IgG1) heavy: not shown light: SYVLTQPPSVSVAPGQTARITCGGSDIGDEIVHWYQQKPGQAPVLVVYDDSDRPSGIPERFSGSNSGNTATLTISRAQAGDEADYYCQVWDSSSDHLIFGGGTKLTVLGQPKAAPSVTLFPPSSEELQANKATLVCLISDFYPGAVTVAWKADSSPVKAGVETTTPSKQSNNKYAASSYLSLTPEQWKSHRSYSCQVTHEGSTVEKTVAPTECS | 72700 | 0.031 µg/mL | 
anti-mutCALR antibody clone 20 (antibody, human IgG1, lambda, V domains shown, human IgG1) VH: EVQLVQSGAEVKKPGASVKVSCKVSGYTLTELSMQWVRQAPGKGLEWMGGFDPDDGETMYAEKFQGRLTVTEDTSTDTVYMELRSLTSEDTALYFCATSPGYDFFDYWGQGTLVTVSS VL: SYVLTQPPSVSVAPGKTARITCGGNNIGSKGVHWYQQKPGQAPVLVVYDDSDRPSGIPERFSGSNSGNTATLTINRVEAGDEADYYCQVWDSSNDLLIFGGGTKLTVLG | 92700 | 0.018 µg/mL | 
anti-mutCALR antibody clone 9 (antibody, human IgG1, lambda, V domains shown, human IgG1) VH: EVQLVQSGAEVKKPGASVKVSCKVSGYTLTELSMQWVRQAPGKGLEWMGGFDPDDGETMYAEKFQGRLTVTEDTSTDTVYMELRSLTSEDTALYFCATSPGYDFFDYWGQGTLVTVSS VL: SYVLTQPPSVSVAPGQTARIPCGGNNIGSKSVHWYQQKPGQAPVLVVYDDRDRPSGIPERFSGSNSGNTATLTINRVEAGDEADYYCQVWDSSNDLLIFGGGTKLTVLG | 75300 | 0.056 µg/mL | 
anti-mutCALR antibody clone 21 (antibody, human IgG1, lambda, V domains shown, human IgG1) VH: EVQLVQSGAEVKKPGASVKVSCEVSGYTLTELSMQWVRQAPGKGLEWMGGFDPDDGETMYAEKFQGRLTVTEDTSTDTVYMELRSLTSEDTALYFCATSPGYDFFDYWGQGTLVTVSS VL: SYVLTQPPSVSVAPGQTARVSCGGNNIGSKSVNWYRQKPGQAPVLVIYDDSDRPSGIPERFSGSNSGNTATLTISRVEAGDEADYYCQVWDSSNDLLIFGGGTKLTVLG | 70100 | 0.032 µg/mL | 0.7 µg/mL
